Laboratory results from US20100204147A1, “Methods For Delivering Thymosin Beta 4, Analogues, Isoforms and Other Derivatives” (REGENERX BIOPHARMACEUTICALS, INC., priority 2003, published 2010).

Molecular target: T1, fibrin (Homo sapiens, UniProt P02671)
T1 construct: purchased Enzyme Research Laboratories (South Bend, Ind.); host or cells: fibrin generated in the well or tube from the purchased fibrinogen with bovine thrombin
T1 sequence (P02671 36-629): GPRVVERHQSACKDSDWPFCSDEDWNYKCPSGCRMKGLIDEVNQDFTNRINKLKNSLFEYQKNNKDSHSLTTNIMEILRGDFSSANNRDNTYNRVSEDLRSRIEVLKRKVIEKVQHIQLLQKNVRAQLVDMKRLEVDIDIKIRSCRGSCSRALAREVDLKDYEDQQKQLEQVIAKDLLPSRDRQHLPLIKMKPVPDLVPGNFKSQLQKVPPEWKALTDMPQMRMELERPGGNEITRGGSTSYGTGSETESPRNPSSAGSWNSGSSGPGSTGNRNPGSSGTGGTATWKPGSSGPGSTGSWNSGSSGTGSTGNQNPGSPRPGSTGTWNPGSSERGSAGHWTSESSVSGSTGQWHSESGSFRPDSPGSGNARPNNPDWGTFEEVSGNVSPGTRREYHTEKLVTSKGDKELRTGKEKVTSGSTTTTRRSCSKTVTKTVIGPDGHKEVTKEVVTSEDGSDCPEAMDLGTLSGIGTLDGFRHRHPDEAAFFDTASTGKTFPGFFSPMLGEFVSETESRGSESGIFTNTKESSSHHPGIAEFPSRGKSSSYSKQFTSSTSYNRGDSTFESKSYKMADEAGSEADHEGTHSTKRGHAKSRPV
T1 sequence (P02675 45-491 partner): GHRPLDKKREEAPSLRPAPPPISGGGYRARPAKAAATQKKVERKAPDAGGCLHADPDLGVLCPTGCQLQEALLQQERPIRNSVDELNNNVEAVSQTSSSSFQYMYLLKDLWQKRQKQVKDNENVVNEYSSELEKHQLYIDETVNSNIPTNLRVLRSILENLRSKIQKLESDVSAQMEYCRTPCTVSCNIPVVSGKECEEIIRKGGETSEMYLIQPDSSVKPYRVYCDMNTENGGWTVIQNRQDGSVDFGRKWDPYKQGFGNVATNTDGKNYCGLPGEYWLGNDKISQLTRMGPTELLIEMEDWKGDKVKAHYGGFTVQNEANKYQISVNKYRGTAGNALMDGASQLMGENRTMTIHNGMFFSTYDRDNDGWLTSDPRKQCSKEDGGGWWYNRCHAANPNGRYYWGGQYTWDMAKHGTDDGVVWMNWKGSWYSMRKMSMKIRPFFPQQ
T1 sequence (P02679 27-437 isoform P02679-2 partner): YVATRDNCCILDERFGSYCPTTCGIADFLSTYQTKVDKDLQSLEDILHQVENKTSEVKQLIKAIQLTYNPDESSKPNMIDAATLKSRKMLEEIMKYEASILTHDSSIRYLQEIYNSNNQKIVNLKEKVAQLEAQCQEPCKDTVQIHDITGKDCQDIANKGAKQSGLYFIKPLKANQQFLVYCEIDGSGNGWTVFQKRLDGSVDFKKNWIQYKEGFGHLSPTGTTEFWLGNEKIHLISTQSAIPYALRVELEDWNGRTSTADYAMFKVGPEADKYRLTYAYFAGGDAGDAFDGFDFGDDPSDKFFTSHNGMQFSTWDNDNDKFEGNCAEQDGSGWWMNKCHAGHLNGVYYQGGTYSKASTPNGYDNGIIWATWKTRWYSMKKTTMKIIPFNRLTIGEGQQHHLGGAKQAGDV
Assay: Western blot time course of factor XIIIa-mediated incorporation into fibrin
Type: biochemical
Conditions: mixture of thrombin, factor XIII, thymosin β4 and fibrin; immunoblotting
Experimental: Reactions of incorporation of FITC-labeled and unlabeled thymosin β4 into fibrinogen and fibrin were performed in Eppendorf tubes containing a mixture of fibrinogen at 3 mg/mL (9 μM) and thymosin β4 or FITC-labeled thymosin β4 at […] (30 μM) in 100 μL TBS with 2.5 mM CaCl2. The reactions were initiated by addition of FXIIIa(Ca) or FXIIIa(Thr) to final concentration of 30 μg/mL. The final concentration of thrombin in the FXIIIa(Thr)-containing mixtures was made at 2.5 NIH u/mL, sufficient to rapidly form fibrin clot which was observed visually. The reactions with FITC-labeled thymosin β4 lasted for 4 hours at 37° C. in the dark and were stopped by heat inactiviation of the enzymes in boiling water for 5 min during fibrinogen and fibrin denatured and precipitated. The pellets were centrifuged and washed 3 times in TBS and then solubilized. The amounts of fibrin(ogen) and FITC-labeled thymosin β4 in the solubilized pellet were determined spectrophotomertrically using absorption molar coefficients E280,1%=15.0 and ε495=72,000 M^−1cm^−1, respectively. […]
Detection of thymosin β4 incorporated into fibrin(ogen) and its fragments was performed as follows. […] The membrane was blocked with a casein blocker for 1 hour and thymosin β4 was detected by the reaction with rabbit anti-thymosin β4 serum and peroxidase-conjugated anti-rabbit IgG. […]

time at which the amount of incorporated (cross-linked) thymosin β4 reaches saturation: 4 h
Substance: thymosin β4
